One molecule from patent US20110183896A1 (published 2011) can be followed below.

Assay [1] concerns the target Cry3Aa toxin of Bacillus thuringiensis tenebrionis, chymotrypsin-treated (Bacillus thuringiensis subsp. …, UniProt P0A379 159-644). The experiment in a line: ELISA.
Assay [2] has as its target Cry3Bb toxin of Bacillus thuringiensis, recombinant from E. coli, chymotrypsin-treated (Bacillus thuringiensis, UniProt Q06117 160-652). Description: ELISA saturation binding.

Cry3Aa toxin of Bacillus thuringiensis tenebrionis, chymotrypsin-treated, sequence (P0A379 159-644): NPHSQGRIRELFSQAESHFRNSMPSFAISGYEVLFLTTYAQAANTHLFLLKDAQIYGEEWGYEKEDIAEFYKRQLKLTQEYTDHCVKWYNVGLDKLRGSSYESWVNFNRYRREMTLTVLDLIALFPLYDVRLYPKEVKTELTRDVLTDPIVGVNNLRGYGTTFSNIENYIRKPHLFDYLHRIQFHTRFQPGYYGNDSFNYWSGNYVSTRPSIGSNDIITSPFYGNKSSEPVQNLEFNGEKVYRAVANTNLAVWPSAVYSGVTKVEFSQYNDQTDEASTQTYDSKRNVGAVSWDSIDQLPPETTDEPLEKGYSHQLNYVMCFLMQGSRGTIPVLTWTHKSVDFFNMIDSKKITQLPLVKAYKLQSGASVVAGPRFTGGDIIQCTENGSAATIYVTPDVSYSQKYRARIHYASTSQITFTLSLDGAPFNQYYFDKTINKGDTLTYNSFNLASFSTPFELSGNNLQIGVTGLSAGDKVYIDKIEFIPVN
Cry3Bb toxin of Bacillus thuringiensis, recombinant from E. coli, chymotrypsin-treated, sequence (Q06117 160-652): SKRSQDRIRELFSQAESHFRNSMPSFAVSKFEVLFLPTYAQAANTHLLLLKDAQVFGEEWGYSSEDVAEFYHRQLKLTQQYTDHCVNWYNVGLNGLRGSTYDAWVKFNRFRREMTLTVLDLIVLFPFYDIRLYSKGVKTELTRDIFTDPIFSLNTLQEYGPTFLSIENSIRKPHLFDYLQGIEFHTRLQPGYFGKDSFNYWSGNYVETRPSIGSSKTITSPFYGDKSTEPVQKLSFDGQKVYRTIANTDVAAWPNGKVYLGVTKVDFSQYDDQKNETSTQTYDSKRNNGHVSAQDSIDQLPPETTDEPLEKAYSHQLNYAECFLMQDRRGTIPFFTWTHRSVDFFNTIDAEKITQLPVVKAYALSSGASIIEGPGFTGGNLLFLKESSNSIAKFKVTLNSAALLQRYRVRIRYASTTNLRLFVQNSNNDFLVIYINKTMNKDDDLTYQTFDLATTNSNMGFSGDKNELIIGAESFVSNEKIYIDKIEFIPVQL

B1: Dv-CR8-10 peptide (cadherin repeats 8-10 of the Diabrotica virgifera virgifera cadherin-like protein), biotinylated (peptide)
chain: MAVLMTKDLQCSENLNKDGEVGEGIIGEDIDDGDNAKIDFSVLSIVDKETKNDIQESFNISKIDSDYVLNDTLKKVHLIAFEDLKGKYGTYEVTLHMHDEGDPMQTTDPDPTLTLTIEKWNYQTPSIIFPENDQTYIVLSDQQPGQPLALFNNTGTSNTLPDFSATDGETKDYSKWDVKFSYTQTNYEDDKIFVIDHIQPCVSQLQVSKHFNSDLVRSKKYKLTITASVKDGAEQEGEAGYSTSANISIVFLNNDAQPIFQNSDWSVSFVEFNTTQPAKPLEEQAEYENTKGGLPIYYHFYSENQTLSKYFEVDETSGDLSVIGNLTYDYDQDISFHIVASNDSQVRMLDPRSSLNVTVNFLPRNRRAPQWHHHHHH
modifications: biotinylated (sites not given)
With B1, the Kd in assay [1] was determined as 18.8 nM; in assay [2], 1.4 nM.
